Experimental data as given in the supplement of paper PMC10567573.

B1: PLK2 (parent)
chain: MELLRTITYQPAASTKMCEQALGK

Variants of: B1
Assay: protein stability index of a GFP-peptide fusion (GPS, HEK-293T) (PSI 1-6); higher = more stable
Settings: c terminus: a fixed tail appended
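Also: lentivirally expressed fusions sorted by FACS into six bins by GFP to DsRed ratio, PSI derived from sequencing read proportions per bin multiplied by bin number.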

Protein stability index of substitutions, site by site:
C18: G 3; D 1.94; H 2.34; W 2.17; R 2.85; L 2.71; Q 1.57; V 2.26; A 3.42; T 2.67; S 2.81; N 1.95; F 2.19; K 1.61; E 1.96; M 2.67; Y 1.01; I 2.49; P 3.07
K16: F 1.83; A 2.13; W 2.05; I 2.61; P 2.02; T 2.55; G 1.81; V 1.96; Y 3.02; S 2.34; Q 2.22; L 1.84; C 2.95; M 1.85; E 2.18; R 2.07; N 2.01; D 2.38; H 1.76
G23: S 3.38; F 2.36; D 1.93; H 2.88; V 1.97; M 2.28; E 2.22; C 2.96; T 1.46; R 1.34; I 1.97; L 3.53; Q 1.87; N 2.37; A 2.64; P 2.27; K 2.94
L22: G 3.33; S 1.52; Y 2.79; E 2.21; I 2.42; R 1.89; W 2.86; T 2.43; M 1.57; N 2.31; C 2.54; Q 2.02; D 1.87; A 2.29; V 2.82; H 3.36; P 1.79; F 2.92; K 1.66
T15: R 1.44; C 2.07; A 2.17; N 2.46; Y 2.83; D 2.95; W 3.77; V 1.54; M 2.87; Q 2.87; H 3.23; I 2.39; L 2.23; K 1.68; F 1.79; G 2.53; S 2.41; P 1.58; E 2.53
E19: C 2.09; F 2.15; D 2.27; I 2.42; A 2.59; K 2.63; H 2.09; L 2.52; V 2.46; P 3.73; N 2.28; G 2.87; Q 1.52; T 2.84; R 2.59; S 1.38; Y 2.82
M17: R 2.68; T 2.74; E 1.86; Q 2.65; N 2.19; V 2.98; L 2.84; S 2.33; G 1.53; P 2.04; I 2.18; D 2.02; W 2.46; Y 1.8; A 2.37; H 2.26; C 2.07; K 2.98; F 1.52
Q20: D 1.95; F 2.08; S 1.75; P 2.62; G 2.7; Y 2.58; K 2.22; V 1.6; N 1.69; R 2.71; C 3.11; M 3.03; L 2.38; E 1.78; W 2.02; A 2.63; I 2.18; H 2.51; T 3.59
A21: L 2.7; N 2.22; I 3.11; C 2.68; Y 2.16; K 1.51; P 2.28; Q 2.98; S 2; M 2.21; W 3.26; E 2.46; H 1.94; D 2.17; T 2.79; V 2.5; G 2.42; F 1.94; R 2.69
